From patent publication US20240173377A1 (published 2024)

What was measured:
Test in all cases: HLA class II competition binding assay
HLA DRB1*1301 = HLA DRB1*1301 (human)
HLA DRB1*0301 = HLA DRB1*0301 (human)
HLA DRB1*1501 = HLA DRB1*1501 (human)
HLA DRB1*1101 = HLA DRB1*1101 (human)
HLA DRB1*0701 = HLA DRB1*0701 (human)
HLA DRB1*0101 = HLA DRB1*0101 (human)
HLA DRB1*0401 = HLA DRB1*0401 (human)

B1: SEQ ID NO 114 (peptide)
peptide: EEQYNSTYTVVSVLTVLHQD
B1 was tested, and the IC50 (HLA DRB1*1301) was 1860 nM, the IC50 (HLA DRB1*0301) was 1570 nM and the IC50 (HLA DRB1*1501) was 2110 nM. The IC50 (HLA DRB1*1101) was 84 nM, the IC50 (HLA DRB1*0701) was 115 nM and the IC50 (HLA DRB1*0101) was 19 nM. The IC50 (HLA DRB1*0401) was 1210 nM.
